The results in this text go back to patent publication US20090325867A1, “RECEPTOR-SPECIFIC TUMOUR NECROSIS FACTOR-RELATED APOPTOSIS-INDUCING LIGAND (TRAIL) VARIANTS” (MEDICAL RESEARCH COUNCIL, priority 2005, published 2009).

“Also recorded” adds a separate entry of the source.

In experiment [1] the target is TRAIL receptor 2 (TRAIL-R2) (Homo sapiens (Human)) (UniProt O14763).
The test system of experiment [2] is Jurkat cells. Description: Apoptosis by phosphatidylserine (PS) externalization in Jurkat cells. The following applies: for inhibition of induced apoptosis by TRAIL-R1 blocking Ab: 30 min pre-incubation with Ab (5 μg ml^−1); for ability to induce apoptosis in Jurkat cells (in words): PS externalization, compared with wt TRAIL. In kind it is cell-based. Here is the method:
Cells were also exposed to HGS-ETR1 or HGSETR2 (1 μg ml^−1). C: Ramos or Jurkat cells were pre-incubated for 30 min either alone or with TRAIL-R1 blocking Ab or TRAIL-R2 neutralizing Ab (5 μg ml^−1). […] D: Ramos and Jurkat cells were exposed to wt TRAIL or TRAIL mutants as described above and processing of caspase-3 and -8 determined by Western blot analysis. The asterisk indicates a non-specific band. The lower panel of the blot for detection of the caspase-8 p18 subunit was exposed for twice as long as the upper panel. Apoptosis was assessed by phosphatidylserine externalization and results expressed as the Means±SEM of at least 3 separate determinations. […]
(§1) Apoptosis was quantified by phosphatidylserine (PS) externalization in the presence of propidium iodide as described (MacFarlane et al., 2002 ibid.). Samples for Western blot analysis were prepared and caspase processing detected as described (Inoue et al., 2004 ibid.; MacFarlane et al., 2005 ibid.).
(§2) Ramos and Jurkat T cells (clone E6-1) were cultured as described (MacFarlane et al, 2005 ibid.). The breast tumour cell line, MCF-7 (clone F43) was cultured as described previously (MacFarlane et al., 2000 J. Cell Biol. 148, 1239-1254). Cells were cultured for either 4 h (Ramos and Jurkat) or 6 h (MCF-7) with His-TRAIL (MacFarlane et al, 1997 J Biol Chem 272, 25417-25420), HGS-ETR1 or HGS-ETR2 (Human Genome Sciences), or a mutant form of His-TRAIL (MacFarlane et al, 2005 ibid.). Samples were analyzed for apoptosis, Western blotting, or TRAIL DISC activation as described (MacFarlane et al, 2005 ibid.; MacFarlane et al. 2002 Oncogene 21, 6809-6818). Mutants of His-TRAIL (residues 95-281) were generated using the Quik-Change site-directed mutagenesis kit (Stratagene, Calif.), confirmed by DNA sequencing, expressed in E. coli and purified as described (MacFarlane et al, 1997 ibid.). For siRNA targeting of TRAIL-R1/-R2, MCF-7 cells were seeded into six-well plates immediately prior to effectene-mediated RNAi transfection with either a negative control siRNA (30 nM, Ambion, #4611), or preannealed siRNA oligonucleotides for TRAIL-R1 or TRAIL-R2 (30 nM, Ambion), with the sequence and validity described (Ren et al, 2004 Mol. Biol. Cell vol 15 pp 5064-5074). After 40 h of transfection the cells were collected and total TRAIL-R1 or TRAIL-R2 levels assessed. Where indicated, RNAi transfected MCF-7 cells were either left untreated or exposed to wt-TRAIL and apoptosis assessed by the extent of Bax activation, determined using the conformation specific Bax MAb, clone 3 (Dewson et al, 2003 Oncogene vol 22 pp 2643-54).

The subject of experiment [3] is primary CLL cells. Description: Apoptosis in freshly isolated CLL cells after depsipeptide. In kind it is cell-based, human. The following applies: depsipeptide 10 nM 16 h, then 6 h ligand or antibody, FIG. 2C. On the procedure:
(§3) After exposure of the cells for 30 min, DISC complexes were isolated and analyzed for the indicated proteins by Western blotting. To provide an unstimulated receptor control (u/s), biotinylated wt or mutant TRAIL was added to lysate from untreated cells. C: Freshly isolated cells from patients with CLL were incubated for 16 h either alone or in the presence of depsipeptide (10 nM). […] The different symbols used indicate data from six individual patients and the solid line indicates the Mean.
Ramos, an Epstein-Barr virus-negative Burkitt's lymphoma cell line, and Jurkat T cells (clone E6-1) were cultured as described (MacFarlane et al (2005 Cell Death and Differentiation vol 12 pages 773-782)). Blood samples were obtained from CLL patients, with patient consent and local ethical committee approval and CLL cells purified as described (MacFarlane et al (2002 Oncogene 21, 6809-6818). Cells were incubated for 16 h with depsipeptide (10 nM), provided by Dr. E. Sausville (NCI, USA). Cells were then cultured for a further 6 h with either HGSETR1 or HGS-ETR2, agonistic mAbs to TRAIL-R1 or -R2, respectively (Human Genome Sciences, Rockville, Md.), His-TRAIL-LE (a recombinant TRAIL with low endotoxin—Alexis Corporation, Nottingham, UK), His-TRAIL, a similar form of human recombinant TRAIL (MacFarlane et al (1997 J Biol Chem 272, 25417-25420)) but not further purified to reduce endotoxin levels or a mutant form of His-TRAIL as described (MacFarlane et al., 2005 ibid.). Cell lines were also pre-incubated for 30 min with a TRAIL-R1 blocking Ab and a TRAIL-R2 neutralizing Ab from Alexis and R&D systems, respectively, prior to exposure to TRAIL. Freshly isolated cells from patients with MCL were isolated, purified and incubated with different forms of TRAIL as described above for CLL cells. Samples were either analyzed immediately for apoptosis or stored at −80° C. for subsequent Western blotting. Other methods and reagents were as described (Inoue (2004 Cell Death Differ 11 Suppl 2, S193-206); MacFarlane et al., 2005 ibid).
as §1

For experiment [4], the system named is TRAIL DISC in Ramos cells. Description: DISC analysis with biotinylated TRAIL in Ramos cells. The following applies: biotinylated ligand 500 ng ml^−1, 30 min. In kind it is cell-based. On the procedure:
as §3
(§4) Ramos or Jurkat cells (5×10^7 cells per treatment) were exposed to biotin-tagged recombinant His-TRAIL (biotinylated TRAIL) or one of its mutant forms (500 ng ml^−1) for 30 min and then DISC formation assessed as described previously (MacFarlane et al., 2002 ibid.).

The subject of experiment [5] is TRAIL DISC in Jurkat cells. Description: DISC analysis with biotinylated TRAIL in Jurkat cells. In kind it is cell-based. The following applies: biotinylated ligand 500 ng ml^−1, 30 min. Here is the method:
as §3, §4

In experiment [6] the target is T1, MCF-7 cells (Homo sapiens).
T1 construct: the breast tumour cell line MCF-7 signals to apoptosis via TRAIL-R1; endogenous in cells; host or cells: MCF-7 (clone F43)
Description: TRAIL DISC activation in MCF-7 cells. The following applies: FIG. 5B. The class given is cell-based. On the procedure: as §2, with “For siRNA targeting of TRAIL-R1/-R2, MCF-7 cells were seeded into six-well plates immediately prior to effectene-mediated RNAi transfection with either a negative control siRNA (30 nM, Ambion, #4611), or preannealed siRNA oligonucleotides for TRAIL-R1 or TRAIL-R2 (30 nM, Ambion), with the sequence and validity described (Ren et al, 2004 Mol. Biol. Cell vol 15 pp 5064-5074).” left out
Apoptosis was quantified by measuring the processing of Caspase-8, Caspase-7 and PARP by Western blot analysis. […]

B1: HGS-ETR2 (antibody, INN chains, looked up, V domains shown)
VH: EVQLVQSGGGVERPGGSLRLSCAASGFTFDDYGMSWVRQAPGKGLEWVSGINWNGGSTGYADSVKGRVTISRDNAKNSLYLQMNSLRAEDTAVYYCAKILGAGRGWYFDLWGKGTTVTVSS
VL: SSELTQDPAVSVALGQTVRITCQGDSLRSYYASWYQQKPGQAPVLVIYGKNNRPSGIPDRFSGSSSGNTASLTITGAQAEDEADYYCNSRDSSGNHVVFGGGTKLTVL
In experiment [1], B1 gave an apoptosis of primary MCL cells after depsipeptide (5 nM, 16 h) of 38.3%. In experiment [2], the “inhibition of induced apoptosis by TRAIL-R1 blocking Ab” value was “not” and the “ability to induce apoptosis in Jurkat cells (in words)” value was “potently induced apoptosis”. For the same molecule, the “sensitization of CLL cells to induced apoptosis by depsipeptide” value in experiment [3] is “not”.

B2: TRAIL.R1-5: 6His TRAIL 95-281 with 193Ser, 199Val, 201Arg, 213Trp and 215Asp (protein)
chain: TSEETISTVQEKQQNISPLVRERGPQRVAAHITGTRGRSNTLSSPNSKNEKALGRKINSWESSRSGHSFLSNLHLRNGELVIHEKGFYYIYSQTYFRFSEEIKEVTRNDKQMVQYIYKWTDYPDPILLMKSARNSCWSKDAEYGLYSIYQGGIFELKENDRIFVSVTNEHLIDMDHEASFFGAFLVG
modifications: biotin (site not stated) in the DISC analysis only; not biotinylated in the apoptosis assays
notes: 6His TRAIL 95-281 with 193Ser, 199Val, 201Arg, 213Trp and 215Asp
With B2, in experiment [2], the “inhibition of induced apoptosis by TRAIL-R1 blocking Ab” value is “blocked” and the “ability to induce apoptosis in Jurkat cells (in words)” value is on record as “lost much of its activity; also recorded: low levels of apoptosis”. In experiment [2] (4 h, FIG. 1A), the “concentration-response of apoptosis compared with wt TRAIL” value was “much less active than wt TRAIL”. Moreover, in experiment [2] (4 h exposure, 500 ng ml^−, Mean ± SEM of at least three determinations), the “% PS+ cells, Jurkat” value is listed as 20.0 ± 2.3%. The “DISC formation: receptor bound, FADD and caspase-8 recruitment” value in experiment [4] is listed as “bound predominantly TRAIL-R1 together with a small amount of TRAIL-R2”. In experiment [5], the “DISC formation: receptor bound, FADD and caspase-8 recruitment” value is “bound small amounts of both TRAIL-R1 and -R2”. Besides, the “sensitization of CLL cells to induced apoptosis by depsipeptide” value in experiment [3] is reported as “sensitized CLL cells”. In addition, the “recruitment and processing of Caspase-8 at the DISC” value in experiment [6] is “resulted in recruitment and processing Caspase-8 at the DISC”.
